Biological target: tubulin heterodimer (porcine/bovine brain tubulin) (not stated (porcine or bovine brain)) (UniProt Q6B856)
Test: ITC; PN2-3 proteins/peptides titrated into tubulin in the cell; 15 °C; 1xBRB80 (80 mM PIPES-K, 1 mM MgCl2, 1 mM EGTA, pH 6.8); one set of binding sites model; tubulin 9 μM for wild type and mutant PN2-3

Sequence of human CPAP PN2-3 domain (aa 319-394), wild type (Q9HC77 319-394): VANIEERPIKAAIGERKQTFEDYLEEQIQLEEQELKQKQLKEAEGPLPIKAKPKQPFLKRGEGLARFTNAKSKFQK
Sequence of human CPAP PN2-3 domain (aa 319-394) EE343RR (Q9HC77 other isoform, or with tags, fused parts or gaps): as the sequence (Q9HC77 319-394) above, with E25R, E26R counted along it
Sequence of PN2-3N peptide (N-terminal helical region of PN2-3, aa 323-361 of CPAP) (Q9HC77 323-361): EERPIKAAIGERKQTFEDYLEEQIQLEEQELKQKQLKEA

| Kd [µM] | Substance |
| --- | --- |
| 68 | PN2-3N peptide (N-terminal helical region of PN2-3, aa 323-361 of CPAP) (from UniProt Q9HC77 323-361) |
| 0.194 | human CPAP PN2-3 domain (aa 319-394) EE343RR (from UniProt Q9HC77 319-394) (domain or fragment) |
| 2.8 | human CPAP PN2-3 domain (aa 319-394) F375A (from UniProt Q9HC77 319-394) (domain or fragment) |
| 0.0256 | human CPAP PN2-3 domain (aa 319-394), wild type (from UniProt Q9HC77 319-394) (domain or fragment) |
